Numbered stars: 1 amine (or outer) side, 2 acyl side, 3 side chain; on linkers, the order of the positions; unused ones are H or OH. Square brackets hold non-standard residues; d marks the D form. Peptide text beside a SMILES is read from it. * marks the point of attachment. DOTA = O=C(O)CN1CCN(CC(=O)O)CCN(CC(=O)*)CCN(CC(=O)O)CC1; Cha = N[C@@H](CC1CCCCC1)C(=O)O; X1 = O=C(CCC(=O)[*:2])CN[*:1]; Nle = CCCC[C@H](N)C(=O)O
How the values were obtained:
[1] = target: T1, BN/GRP receptor-positive MDA-MB-231 human breast cancer cells (Homo sapiens, UniProt P30550); test: Saturation binding assay on MDA-MB-231 cells; conditions: n = 3-5 experiments
T1 construct: BN/GRP receptor-positive MDA-MB-231, MCF7, T47D human breast cancer, and PC3 human prostate cancer lines; host or cells: MDA-MB-231, MCF7, T47D (human breast cancer), PC3 (human prostate cancer); intact cells
Experimental: (§1) The cell binding of ^68Ga-radiolabeled peptides into BN/GRP receptor-positive MDA-MB-231, MCF7, T47D human breast cancer, and PC3 human prostate cancer lines (American Type Culture Collection, Rockville, MD, USA) was performed according to the method described previously. In brief, ∼ 300,000 cells (in 300 μL in low-serum media) were incubated with various amounts of radiopeptides, ranging between 0.1 and 25 nM of peptide (prepared from the serial dilutions of HPLC-purified radiopeptides), in duplicate for 60 min at room temperature. The initial concentrations of ^68Ga-labeled peptides were determined according to a well-established HPLC technique with simultaneous detection by UV absorbance. As the amount of BN peptide in the reaction mixture was too small to be detected by UV absorption at 220 nm, the radioactive peptide chromatograms from the HPLC analysis were compared (with UV chromatograms) with those of known concentrations of the corresponding nonradioactive peptides for the mass determination. Incubation was terminated by dilution with cold saline (300 μL) and the cells were pelleted by centrifugation. The cell pellets was then rapidly washed with cold saline to remove any unbound peptide and centrifuged to collect supernatants. Radioactivity in the cell pellet and the washings was measured in a γ-counter. Non-specific binding was determined in the presence of ~ 200-fold molar excess of unlabeled BN peptide. Specific binding is calculated by subtracting the non-specifically bound radioactivity from that of the total binding. The dissociation constant (Kd) was calculated using a plot of cell bound activity versus the concentration of the radioligand using GraphPad Prism software (GraphPad Software Inc., San Diego, CA, USA).

[2] = tested on: MDA-MB-231 tumors; test: in vivo; format: in vivo, nude mice; conditions: for Uptake in Tumor: nude mice with MDA-MB-231 tumors, mean ± SD, n = 3-5
Experimental: (§2) BN/GRP receptor-positive MDA-MB-231 and PC3 cell lines (American Type Culture Collection, Rockville, USA) were grown as monolayers at 37 °C in a humidified atmosphere containing RPMI-1640 culture media with 10% fetal bovine serum (FBS) in tissue culture flasks. Twenty-four hours prior to conducting the tumor implantation, the media was replaced with RPMI-1640/10% FBS. The cells were grown to 80-90% confluency and harvested by trypsinization. After centrifugation, about 50 million cells were suspended in 1 mL media for implantation into mice. To prepare cells for inoculation, MDA-MB-231 or PC3 cancer cells with media were centrifuged, the media decanted, and the cell pellet was mixed with phosphate-buffered saline (PBS) to reach a concentration of approximately 5 million cells per 100 μL PBS. Human MDA-MB-231 breast cancer xenografts female mouse models were used for in vivo tumor-targeting experiments. For the implantation of tumor xenografts, approximately five million MDA-MB-231 cells in suspension of 100 μL sterile PBS were injected subcutaneously into the left thigh of each mouse. Tumors were allowed to grow for 4-6 weeks by which tumors had reached weights of 200-300 mg. After sufficient growth of tumors, animals were injected with 20-30 μCi of the radiotracers and the animals were sacrificed at specified time points. The uptake of ^68Ga-radiolabeled peptides in the tumors and other major body organs was calculated by γ-counting as described above.

[3] = in vivo; format: in vivo, nude mice; conditions: female, nude, mouse, in vivo, total radioactivity
Experimental: as §2

[4] = target: T2, BN/GRP receptor-positive MCF7 human breast cancer cells (Homo sapiens, UniProt P30550); test: Saturation binding assay on MCF7 cells; conditions: n = 3-5 experiments
T2 construct: BN/GRP receptor-positive MDA-MB-231, MCF7, T47D human breast cancer, and PC3 human prostate cancer lines; host or cells: MDA-MB-231, MCF7, T47D (human breast cancer), PC3 (human prostate cancer); intact cells
Experimental: as §1

[5] = format: physicochemical
Experimental: For lipophilicity determination, each HPLC-purified radiopeptide (~ 20 μL, ∼ 25 μCi) was added into a glass tube containing an equal volume mixture of n-octanol and water (1 mL each). The samples were vigorously vortexed for 5 min and subsequently centrifuged (5000 rpm, 5 min) to yield two immiscible layers. Duplicate samples (100 μL) from each layer were carefully taken (to avoid cross-contamination between the layers) for radioactivity measurement using a γ-counter. Partition coefficient was determined by the function: partition coefficient = Log10 (radioactivity in octanol layer/radioactivity in aqueous layer).

[6] = ~300,000 cells, 0.1-25 nM radiopeptide, 60 min, room temperature, mean ± SD
[7] = Radioactivity in Urine + bladder
[8] = Uptake in Intestines (measured without their contents)

With `CCCC[C@H](NC(=O)[C@H](Cc1c[nH]cn1)NC(=O)[C@H](CC1CCCCC1)NC(=O)[C@@H](NC(=O)[C@H](C)NC(=O)[C@H](Cc1c[nH]c2ccccc12)NC(=O)[C@H](CCC(N)=O)NC(=O)[C@H](CS)NC(=O)CNC(=O)CNC(=O)CCC(=O)CNC(=O)CN1CCN(CC(=O)O)CCN(CC(=O)O)CCN(CC(=O)O)CC1)C(C)C)C(=O)N[C@@H](CCSC)C(N)=O` [^68Ga-DOTA-ALA-BN Cyclen, metal not drawn] ({DOTA}-[X1]GGCQWAV[Cha]H[Nle]M-NH2) as the compound, how does the “Bmax (apparent number of binding sites per cell)” value ([1]; SD < 15%) read?
Its value is 1.02 × 10^5 sites/cell.

And the Kd [1, 6]?
Its Kd is 15.1 ± 3.12 nM.

And the “Uptake in Spleen” value ([2]; female, nude, mouse, in vivo, 2 h)?
The value was 0.17 ± 0.02 % ID/g.

And the “Uptake in Tumor” value ([2]; 1 h p.i.)?
The value was 1.82 ± 0.26 % ID/g.

What about the “Uptake in Tumor” value ([2]; 2 h p.i.) of the same compound?
Its value is 0.84 ± 0.13 % ID/g.

What about the dose excreted at 1 h [3, 7] of the same compound?
Its dose excreted at 1 h is 62 ± 6.28%.

And the dose excreted at 2 h [3, 7]?
Its dose excreted at 2 h is 71 ± 9.68%.

And the tissue uptake at 1 h ([3]; Uptake in Blood)?
Its tissue uptake at 1 h is 0.79 ± 0.13 %ID/g.

What about the tissue uptake at 2 h ([3]; Uptake in Blood) of the same compound?
Its tissue uptake at 2 h is 0.37 ± 0.1 %ID/g.

What about the tissue uptake at 1 h [3, 8] of the same compound?
The tissue uptake at 1 h was 0.9 ± 0.12 %ID/g.

And the tissue uptake at 2 h [3, 8]?
The tissue uptake at 2 h was 0.6 ± 0.1 %ID/g.

And the tissue uptake at 1 h ([3]; Uptake in Kidneys)?
The tissue uptake at 1 h was 5.94 ± 0.63 %ID/g.

What about the tissue uptake at 2 h ([3]; Uptake in Kidneys) of the same compound?
Its tissue uptake at 2 h is 3.2 ± 0.32 %ID/g.

What about the tissue uptake at 1 h ([3]; Uptake in Liver) of the same compound?
The tissue uptake at 1 h was 1.4 ± 0.26 %ID/g.

And the tissue uptake at 2 h ([3]; Uptake in Liver)?
Its tissue uptake at 2 h is 1.12 ± 0.19 %ID/g.

What about the tissue uptake at 2 h ([3]; Uptake in Lungs) of the same compound?
Its tissue uptake at 2 h is 0.67 ± 0.13 %ID/g.

What about the tissue uptake at 1 h ([3]; Uptake in Muscle) of the same compound?
The tissue uptake at 1 h was 0.3 ± 0.06 %ID/g.

What about the tissue uptake at 2 h ([3]; Uptake in Muscle) of the same compound?
The tissue uptake at 2 h was 0.21 ± 0.03 %ID/g.

And the tissue uptake at 1 h ([3]; Uptake in Pancreas)?
The tissue uptake at 1 h was 1.05 ± 0.12 %ID/g.

And the tissue uptake at 2 h ([3]; Uptake in Pancreas)?
The tissue uptake at 2 h was 0.88 ± 0.11 %ID/g.

What about the tissue uptake at 1 h ([3]; Uptake in Spleen) of the same compound?
The tissue uptake at 1 h was 0.26 ± 0.03 %ID/g.

What about the tissue uptake at 1 h ([3]; Uptake in Stomach) of the same compound?
Its tissue uptake at 1 h is 0.87 ± 0.19 %ID/g.

What about the tissue uptake at 2 h ([3]; Uptake in Stomach) of the same compound?
The tissue uptake at 2 h was 0.46 ± 0.05 %ID/g.

And the “Bmax (apparent number of binding sites per cell)” value ([4]; SD < 15%)?
Its value is 2.11 × 10^5 sites/cell.

And the Kd [4, 6]?
Its Kd is 13.7 ± 2.32 nM.

And the “Log P (octanol/water)” value [5]?
Its value is “− 0.80 ± 0.05”.

From paper PMC6733935, “A convenient and efficient total solid-phase synthesis of DOTA-functionalized tumor-targeting peptides for PET imaging of cancer” (EJNMMI Research, 2019)
